This passage reports pKd results from publication PMC9482650, “Quantitative fragmentomics allow affinity mapping of interactomes” (Nature Communications, 2022).

Targets include NHERF4_4, Q86UT5; HTRA1, Q92743; PDZRN4_1, Q6ZMN7; MAGI2_2, Q86UL8; MAGI2_3, Q86UL8; DLG1_2, Q12959; LIMK2, P53671.
Experiment in all cases: holdup assay
Common to all, as to design: key: below the threshold = too weak to quantify, mostly under pKd 3.1 to 4
What all share (conditions): plain residues with an end cap or a label only (N-terminal biotin on a linker: ado-ado)

In another experiment the target is T1, TIAM2, Q8IVF5.
T1 sequence (Q8IVF5 885-986, limits assumed, looked up): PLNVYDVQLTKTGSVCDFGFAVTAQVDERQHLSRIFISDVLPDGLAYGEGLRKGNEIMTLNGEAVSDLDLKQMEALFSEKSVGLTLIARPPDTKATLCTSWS

In a further experiment the target is T2, CARD11, Q9BXL7.
T2 sequence (Q9BXL7 662-765, limits assumed, looked up): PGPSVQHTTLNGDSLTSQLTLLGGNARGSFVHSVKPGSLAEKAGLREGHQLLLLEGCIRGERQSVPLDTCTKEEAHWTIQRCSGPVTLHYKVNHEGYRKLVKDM

Another experiment concerns the target T3, GRIP1_5, Q9Y3R0.
T3 sequence (Q9Y3R0 568-668, limits assumed, looked up): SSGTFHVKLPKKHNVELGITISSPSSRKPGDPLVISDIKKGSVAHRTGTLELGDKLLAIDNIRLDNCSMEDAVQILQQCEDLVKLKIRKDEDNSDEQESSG

The target in a further experiment is T4, DFNB31_2, Q9P202.
T4 sequence (Q9P202 274-371, limits assumed, looked up): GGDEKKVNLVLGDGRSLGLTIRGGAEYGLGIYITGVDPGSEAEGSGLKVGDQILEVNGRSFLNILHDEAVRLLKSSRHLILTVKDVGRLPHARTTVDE

In a further experiment the target is T5, FRMPD1, Q5SYB0.
T5 sequence (Q5SYB0 52-145, limits assumed, looked up): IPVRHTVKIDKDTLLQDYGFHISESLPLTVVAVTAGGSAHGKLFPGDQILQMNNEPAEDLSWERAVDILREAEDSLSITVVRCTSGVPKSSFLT

In a further experiment the target is T6, DFNB31_1, Q9P202.
T6 sequence (Q9P202 135-233, limits assumed, looked up): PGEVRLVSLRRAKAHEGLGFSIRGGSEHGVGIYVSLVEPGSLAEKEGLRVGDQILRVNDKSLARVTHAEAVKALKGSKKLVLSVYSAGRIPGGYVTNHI

In another experiment the target is T7, TJP3_3, O95049.
T7 sequence (O95049 375-456, limits assumed, looked up): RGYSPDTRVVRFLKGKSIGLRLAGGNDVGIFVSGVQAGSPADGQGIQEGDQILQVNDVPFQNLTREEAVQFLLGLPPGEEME

A further experiment deals with T8, HTRA4, P83105.
T8 sequence (P83105 378-476, limits assumed, looked up): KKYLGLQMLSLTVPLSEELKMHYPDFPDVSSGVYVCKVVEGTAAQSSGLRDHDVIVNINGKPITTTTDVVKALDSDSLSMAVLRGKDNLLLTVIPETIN

A further experiment has as its target T9, TX1BP3, O14907.
T9 sequence (O14907 10-122, limits assumed, looked up): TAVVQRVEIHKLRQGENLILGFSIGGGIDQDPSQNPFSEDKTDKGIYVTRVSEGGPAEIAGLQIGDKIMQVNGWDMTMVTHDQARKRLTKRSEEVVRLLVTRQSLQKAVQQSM

The target in a further experiment is T10, APBA1_1, Q02410.
T10 sequence (Q02410 651-752, limits assumed, looked up): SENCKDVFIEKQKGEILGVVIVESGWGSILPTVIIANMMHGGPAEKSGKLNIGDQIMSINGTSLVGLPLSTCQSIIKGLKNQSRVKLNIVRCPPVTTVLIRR

The target of a further experiment is T11, SHANK1, Q9Y566.
T11 sequence (Q9Y566 658-767, limits assumed, looked up): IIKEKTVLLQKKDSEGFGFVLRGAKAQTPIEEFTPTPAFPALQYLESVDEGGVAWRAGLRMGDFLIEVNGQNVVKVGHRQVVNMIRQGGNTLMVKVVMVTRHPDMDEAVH

For another experiment, the target named is T12, DVL3, Q92997.
T12 sequence (Q92997 244-331, limits assumed, looked up): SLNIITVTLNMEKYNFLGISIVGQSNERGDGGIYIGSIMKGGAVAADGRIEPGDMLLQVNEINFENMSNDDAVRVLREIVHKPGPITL

The next experiment has as its target T13, DFNB31_3, Q9P202.
T13 sequence (Q9P202 811-907, limits assumed, looked up): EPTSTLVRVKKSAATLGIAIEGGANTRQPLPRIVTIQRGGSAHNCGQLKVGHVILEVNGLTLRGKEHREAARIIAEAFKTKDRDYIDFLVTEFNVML

Another experiment addresses T14, LIN7C, Q9NUP9.
T14 sequence (Q9NUP9 88-185, limits assumed, looked up): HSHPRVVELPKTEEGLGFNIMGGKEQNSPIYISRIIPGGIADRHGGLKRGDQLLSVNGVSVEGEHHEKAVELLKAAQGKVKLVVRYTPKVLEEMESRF

In the next experiment the target is T15, RAPGEF6, Q8TEU7.
T15 sequence (Q8TEU7 525-625, limits assumed, looked up): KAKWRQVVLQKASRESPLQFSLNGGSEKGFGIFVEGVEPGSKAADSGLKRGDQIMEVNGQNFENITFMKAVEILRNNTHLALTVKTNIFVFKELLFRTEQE

Sequence of MAGI2_3, Q86UL8 (Q86UL8 600-682): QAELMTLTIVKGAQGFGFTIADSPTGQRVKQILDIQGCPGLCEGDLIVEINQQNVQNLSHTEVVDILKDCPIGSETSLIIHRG
Sequence of MAGI2_2, Q86UL8 (Q86UL8 410-522): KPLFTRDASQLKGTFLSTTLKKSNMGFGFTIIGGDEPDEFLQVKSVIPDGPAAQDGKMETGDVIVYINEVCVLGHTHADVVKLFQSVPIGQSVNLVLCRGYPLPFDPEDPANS
Sequence of HTRA1, Q92743 (Q92743 360-477): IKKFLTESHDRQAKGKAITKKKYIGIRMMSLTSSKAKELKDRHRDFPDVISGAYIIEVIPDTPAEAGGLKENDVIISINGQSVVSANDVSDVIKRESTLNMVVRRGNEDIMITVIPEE
Sequence of LIMK2, P53671 (P53671 143-248): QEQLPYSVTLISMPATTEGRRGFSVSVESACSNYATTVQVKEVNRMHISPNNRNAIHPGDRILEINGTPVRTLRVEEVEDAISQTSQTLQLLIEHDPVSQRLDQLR
Sequence of PDZRN4_1, Q6ZMN7 (Q6ZMN7 213-318): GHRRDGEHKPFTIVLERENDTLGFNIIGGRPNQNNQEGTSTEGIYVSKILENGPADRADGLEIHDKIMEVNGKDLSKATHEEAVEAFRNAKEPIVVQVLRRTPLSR
Sequence of DLG1_2, Q12959 (Q12959 314-412): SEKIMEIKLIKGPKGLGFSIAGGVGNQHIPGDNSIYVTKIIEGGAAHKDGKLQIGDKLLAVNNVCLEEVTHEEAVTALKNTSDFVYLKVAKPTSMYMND
Sequence of NHERF4_4, Q86UT5 (Q86UT5 464-550): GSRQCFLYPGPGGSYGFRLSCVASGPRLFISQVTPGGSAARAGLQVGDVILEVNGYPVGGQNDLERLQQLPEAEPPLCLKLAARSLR

With ARGPPRESEV [FAM110D, Q8TAY7], the negative logarithm of the Kd (pKd) result with TIAM2, Q8IVF5 was “below the threshold”; in the experiment with CARD11, Q9BXL7, “below the threshold”; in the experiment with GRIP1_5, Q9Y3R0 it was “below the threshold”; with DFNB31_2, Q9P202, 3.57; in the experiment with FRMPD1, Q5SYB0, “below the threshold”; with NHERF4_4, Q86UT5 it was “below the threshold”. Also, the negative logarithm of the Kd (pKd) was 3.75 with DFNB31_1, Q9P202; “below the threshold” with TJP3_3, O95049; “below the threshold” with HTRA1, Q92743; 3.87 in the experiment with HTRA4, P83105; 5.24 with TX1BP3, O14907; “below the threshold” with APBA1_1, Q02410. Further, the pKd entry was “below the threshold” with SHANK1, Q9Y566; 4.4 with PDZRN4_1, Q6ZMN7; 4.56 in the experiment with MAGI2_2, Q86UL8; 3.53 in the experiment with MAGI2_3, Q86UL8; 5.48 with DLG1_2, Q12959; “below the threshold” with DVL3, Q92997. Moreover, the pKd entry is “below the threshold” in the experiment with DFNB31_3, Q9P202; “below the threshold” in the experiment with LIMK2, P53671; 3.67 with LIN7C, Q9NUP9; “below the threshold” with RAPGEF6, Q8TEU7.
As to NTLNRKTTPV [CACNG8, Q8WXS5], the pKd result was “below the threshold” with TIAM2, Q8IVF5; “below the threshold” in the experiment with CARD11, Q9BXL7; 3.48 in the experiment with GRIP1_5, Q9Y3R0; “below the threshold” in the experiment with DFNB31_2, Q9P202; “below the threshold” with FRMPD1, Q5SYB0; 3.99 with NHERF4_4, Q86UT5. Besides, the negative-log Kd (pKd) with DFNB31_1, Q9P202 was 3.95; with TJP3_3, O95049, “below the threshold”; in the experiment with HTRA1, Q92743 it was “below the threshold”; with HTRA4, P83105, 3.94; with TX1BP3, O14907, 5.01; with APBA1_1, Q02410, “below the threshold”. The negative logarithm of the Kd (pKd) result with SHANK1, Q9Y566 is “below the threshold”; with PDZRN4_1, Q6ZMN7, 3.63; with MAGI2_2, Q86UL8, 4.93; with MAGI2_3, Q86UL8, 3.85; with DLG1_2, Q12959, 5.05; with DVL3, Q92997, “below the threshold”. The pKd entry in the experiment with DFNB31_3, Q9P202 is “below the threshold”; with LIMK2, P53671, “below the threshold”; with LIN7C, Q9NUP9, “below the threshold”; in the experiment with RAPGEF6, Q8TEU7, “below the threshold”.
Turning to ARSAAASNYV [CLDN4, O14493], the pKd entry is “below the threshold” with TIAM2, Q8IVF5; “below the threshold” with CARD11, Q9BXL7; “below the threshold” with GRIP1_5, Q9Y3R0; “below the threshold” in the experiment with DFNB31_2, Q9P202; “below the threshold” with FRMPD1, Q5SYB0; 3.92 with NHERF4_4, Q86UT5. Moreover, the pKd entry was “below the threshold” with DFNB31_1, Q9P202; 3.65 with TJP3_3, O95049; 4.17 with HTRA1, Q92743; 3.98 with HTRA4, P83105; “below the threshold” with TX1BP3, O14907; “below the threshold” with APBA1_1, Q02410. Moreover, the negative-log Kd (pKd) result with SHANK1, Q9Y566 is “below the threshold”; with PDZRN4_1, Q6ZMN7, 3.66; in the experiment with MAGI2_2, Q86UL8 it was 3.6; with MAGI2_3, Q86UL8, “below the threshold”; in the experiment with DLG1_2, Q12959 it was “below the threshold”; with DVL3, Q92997 it was 3.66. The pKd result was “below the threshold” in the experiment with DFNB31_3, Q9P202; “below the threshold” with LIMK2, P53671; 3.99 with LIN7C, Q9NUP9; “below the threshold” with RAPGEF6, Q8TEU7.
For the molecule QRPYRRGSEI [KCNJ18, B7U540], the negative logarithm of the Kd (pKd) with TIAM2, Q8IVF5 was 4.11; in the experiment with CARD11, Q9BXL7 it was “below the threshold”; with GRIP1_5, Q9Y3R0, “below the threshold”; with DFNB31_2, Q9P202, “below the threshold”; with FRMPD1, Q5SYB0, “below the threshold”; with NHERF4_4, Q86UT5, “below the threshold”. The pKd is 3.9 in the experiment with DFNB31_1, Q9P202; “below the threshold” with TJP3_3, O95049; 3.85 with HTRA1, Q92743; “below the threshold” with HTRA4, P83105; “below the threshold” with TX1BP3, O14907; “below the threshold” with APBA1_1, Q02410. Further, the negative logarithm of the Kd (pKd) result in the experiment with SHANK1, Q9Y566 is “below the threshold”; with PDZRN4_1, Q6ZMN7 it was “below the threshold”; with MAGI2_2, Q86UL8, 3.8; with MAGI2_3, Q86UL8, “below the threshold”; with DLG1_2, Q12959 it was 3.51; in the experiment with DVL3, Q92997 it was “below the threshold”. The pKd in the experiment with DFNB31_3, Q9P202 was 3.83; in the experiment with LIMK2, P53671, “below the threshold”; in the experiment with LIN7C, Q9NUP9, 3.92; with RAPGEF6, Q8TEU7, “below the threshold”.
Take PTPDLPQTRV [KLHDC7A, Q5VTJ3]: the pKd is 3.86 with TIAM2, Q8IVF5; “below the threshold” in the experiment with CARD11, Q9BXL7; “below the threshold” in the experiment with GRIP1_5, Q9Y3R0; 3.69 in the experiment with DFNB31_2, Q9P202; “below the threshold” in the experiment with FRMPD1, Q5SYB0; “below the threshold” with NHERF4_4, Q86UT5. Moreover, the negative logarithm of the Kd (pKd) was 4.79 in the experiment with DFNB31_1, Q9P202; “below the threshold” with TJP3_3, O95049; “below the threshold” in the experiment with HTRA1, Q92743; 3.87 in the experiment with HTRA4, P83105; “below the threshold” with TX1BP3, O14907; “below the threshold” in the experiment with APBA1_1, Q02410. The negative logarithm of the Kd (pKd) in the experiment with SHANK1, Q9Y566 was 4.5; with PDZRN4_1, Q6ZMN7 it was 3.59; with MAGI2_2, Q86UL8 it was 3.86; with MAGI2_3, Q86UL8, 3.77; in the experiment with DLG1_2, Q12959, 3.53; with DVL3, Q92997, “below the threshold”. In addition, the pKd was 4.1 in the experiment with DFNB31_3, Q9P202; “below the threshold” in the experiment with LIMK2, P53671; 3.49 in the experiment with LIN7C, Q9NUP9; “below the threshold” with RAPGEF6, Q8TEU7.

For orientation: pKd means −log10 of the Kd, conventionally taken in molar units.
